Reference: US20200071380A1, “COMBINATION THERAPIES COMPRISING SIRP ALPHA-BASED CHIMERIC PROTEINS” (Shattuck Labs, Inc., priority 2018, published 2020)

Experiments:
[1] = target: recombinant mouse CD47 and CD40 (Mus musculus, UniProt P27512+Q61735); experiment: Dual functional ELISA of the murine surrogate; assay type: binding
[2] = tested on: splenic dendritic cells; experiment: In vivo splenic dendritic cell activation; set-up: species or system mice; settings: single IV dose; 6 or 24 hours, especially the 24 hour time point
Description: For each panel, the samples are (left to right): untreated, sheep RBCs, αCD47 (MIAP301), αSIRPα (P84), mSIRPα-Fc-CD40L, mSIRPα-Fc-CD40L (24 Hrs), and αCD47 (MIAP301) (24 hrs). FIG. 9B is a quantitation of in vivo dendritic cell activation corresponding to FIG. 9A. Shown is the absolute percent of CD4+ and CD8+ dendritic cells; also gated on CD11c and DC1R2. In FIG. 9B, for each panel, the samples are (left to right): untreated, sheep RBCs, αCD47 (MIAP301), αSIRPα (P84), SIRPα-Fc-CD40L (150 μg), SIRPα-Fc-CD40L (300 μg), SIRPα-Fc-CD40L (300 μg) (24 Hrs), and αCD47 (MIAP301) (24 hrs).
An in vivo assay to examine SIRPα/CD47 function in mice was describe in Yi et al., “Splenic Dendritic Cells Survey Red Blood Cells for Missing Self-CD47 to Trigger Adaptive Immune Responses. Immunity. 2015;43(4):764-75) (the contents of which is incorporated by reference in its entirety). This assay detects the activation status of splenic dendritic cells in response to SIRPa/CD47 inhibitors or to infused sheep red blood cells (RBC).
After 6 or 24 hours, mice were euthanized and their spleens excised, dissociated, and assessed by flow cytometry for populations of activated CD4+ dendritic cells (DCs) (FIG. 9A, left panel) or CD8+dendritic cells (FIG. 9A, right panel); both populations of dendritic cells were also positive for MHC II (I-Ab), CD11c, and DC1R2.

[3] = tested on: CT26 tumors; experiment: Syngeneic CT26 colon tumor model versus CD40/CD47 antibodies (Example 11); assay type: in vivo, mice
Description: FIG. 20C: a similar CT26 experiment was initiated as described in FIG. 20A above, however mice were pre-treated on days −1, 1, and 10 with IP injections of 100 μg of either or both CD4/CD8 depleting antibodies. Mice were inoculated with CT26 tumors on day 0 and treated at a later starting date than FIG. 20A with mSIRPα-Fc-CD40L ARC on days 7, 9, and 11. […] In FIG. 20D and FIG. 20E, BALB/C mice were inoculated with WEHI3 tumors (FIG. 20D) or A20 tumors (FIG. 20E) subcutaneously on the rear flank, and then treated via IP injection with anti-CD20 or mSIRPα-Fc-CD40L on days 7, 9, and 11 (WEHI3) or days 10, 12, and 14 (A20); when tumors were established and reached approximately 57-60 mm^3. A cohort of mice were pre-treated with an interferon alpha receptor 1 (IFNAR1) blocking antibody ([…] by IP injection) on days -1, 1, and 10 (WEHI3) or on days −1, 1, and 13 (A20). FIG. 20F to FIG. 20H are graphs showing blockade of CD4, CD8, and IFNAR1. Peripheral blood analysis by flow cytometry of CD4 (FIG. 20F), CD8 (FIG. 20G), and IFNAR1 (FIG. 20H) depletion following depleting antibody treatment corresponding to FIG. 20C to FIG. 20E. Samples were normalized to untreated animals.
Implanted CT26 tumors were allowed to grow to ˜30 mm^3 before treatment was initiated with a fixed regimen of two doses of either a CD40 agonist antibody (clone FGK4.5), a CD47 blocking antibody (clone MIAP301), a combination of the two antibodies, or the murine SIRPα-Fc-CD40L chimeric protein. […] Based on this observation, these experiments were repeated in the setting of antibody-mediated depletion of both CD4+ and CD8+ cells (FIG. 20C).
CD4 and CD8 depletion was verified in the peripheral blood at multiple time points during the experiment (see, FIG. 20F and FIG. 20G).

[4] = target: T1, murine CD40 (Mus musculus, UniProt P27512); experiment: Murine CD40/NFκB-luciferase reporter in CHOK1 cells; assay type: cell-based
T1 construct: expressed in transfected cells; host or cells: CHO-K1
T1 sequence (P27512 20-289): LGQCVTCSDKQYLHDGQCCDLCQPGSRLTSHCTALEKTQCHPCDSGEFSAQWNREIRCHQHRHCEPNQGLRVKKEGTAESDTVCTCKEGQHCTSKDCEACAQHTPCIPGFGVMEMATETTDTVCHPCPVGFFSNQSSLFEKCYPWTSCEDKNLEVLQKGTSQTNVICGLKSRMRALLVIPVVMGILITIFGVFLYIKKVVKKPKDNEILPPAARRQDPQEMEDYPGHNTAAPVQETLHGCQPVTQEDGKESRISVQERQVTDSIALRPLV
Description: Cells were cultured with a dose titration of recombinant human CD40L-his or SIRPα-Fc-CD40L, and luminescence was read on a luminometer after 6 hours. The left histograms are (−) Control, middle histograms are hCD40L-His and the right histograms are SIRPα-Fc-CD40L. […] CD8-depleted PBMC from 33-50 distinct human donors were cultured with media only, the neoantigen positive control KLH, the clinical stage non-activating control Exenatide, or 0.3, 3, 30, or 300 nM of SIRPα-Fc-CD40L. At 10 μg/ml on the X-axis, the samples are, top to bottom: hCD40L-Fc, SIRPα-Fc-CD40L, ahCD40 (HB14) ad (−) Control. […] The left histograms are (−) control, second from left are FC-mCD40L, second from right are anti-mCD40 (FGK4.5) and right are mSIRPα-Fc-CD40L.
The murine version of the CD40/NFκB-luciferase system was established in CHOK1 cells.

[5] = tested on: peripheral blood cell populations; experiment: Peripheral blood cell populations in treated mice; assay type: in vivo
Description: FIG. 22B is a graph showing RBCs and test agents that were incubated at 37° C. for 24 hours and then the media was assessed at OD490 for changes in absorbance due to hemoglobin being released from lysing RBCs. […] FIG. […] Cell populations were assessed by flow cytometry and included CD20+ B cells, CD110+, CD4+/CD11c+, and CD8+/CD11c+ dendritic cells.
Receptor occupancy was evaluated on circulating CD40+ lymphocytes.

[6] = tested on: WEHI3 leukemia cells; experiment: Murine phagocytosis assay, BMDMs with WEHI3 leukemia cells; assay type: cell-based
[7] = tested on: A20 lymphoma; experiment: Murine phagocytosis assay, BMDMs with A20 lymphoma cells; assay type: cell-based

B1: mSIRPα-Fc-CD40L: Murine version of SIRPα-Fc-CD40L, made from murine proteins to assess activity in vivo (protein)
chain: KELKVTQPEKSVSVAAGDSTVLNCTLTSLLPVGPIRWYRGVGPSRLLIYSFAGEYVPRIRNVSDTTKRNNMDFSIRISNVTPADAGIYYCVKFQKGSSEPDTEIQSGGGTEVYVLAKPSPPEVSGPADRGIPDQKVNFTCKSHGFSPRNITLKWFKDGQELHPLETTVNPSGKNVSYNISSTVRVVLNSMDVNSKVICEVAHITLDRSPLRGIANLSNFIRVSPTVKVTQQSPTSMNQVNLTCRAERFYPEDLQLIWLENGNVSRNDTPKNLTKNTDGTYNYTSLFLVNSSAHREDVVFTCQVKHDQQPAITRNHTVLGFAHSSDQGSMQTFPDNNATHNWNVPRDCGCKPCICTVPEVSSVFIFPPKPKDVLTITLTPKVTCVVVDISKDDPEVQFSWFVDDVEVHTAQTQPREEQFNSTFRSVSELPIMHQDWLNGKEFKCRVNSAAFPAPIEKTISKTKGRPKAPQVYTIPPPKEQMAKDKVSLTCMITDFFPEDITVEWQWNGQPAENYKNTQPIMNTNGSYFVYSKLNVQKSNWEAGNTFTCSVLHEGLHNHHTEKSLSHSPGKHRRLDKVEEEVNLHEDFVFIKKLKRCNKGEGSLSLLNCEEMRRQFEDLVKDITLNKEEKKENSFEMQRGDEDPQIAAHVVSEANSNAASVLQWAKKGYYTMKSNLVMLENGKQLTVKREGLYYVYTQVTFCSNREPSSQRPFIVGLWLKPSSGSERILLKAANTHSSSQLCEQQSVHLGGVFELQAGASVFVNVTEASQVIHRVGFSSFGLLKL
- simultaneous binding to recombinant mouse CD47 and CD40 [1]: simultaneous binding
- splenic CD4+ and CD8α+ DCs expressing high levels of MHCII, CD80, and CD86 [2]: greatly upregulated splenic CD4+ and CD8α+ DCs
- rejection of a secondary tumor challenge among mice that rejected the primary tumor ([3]; no additional treatment): 60%
- mice rejecting primary tumors ([3]; two doses, treatment started at ˜30 mm^3): 62%
- tumor growth / survival ([3]; two doses, treatment started at ˜30 mm^3, versus vehicle controls): significant prolongation in tumor growth and survival
- activation of the NFκB pathway, murine CD40 reporter [4]: consistently stimulated potent activation of the NFκB pathway
- overall CD45+ peripheral lymphocytes ([5]; 24 hours following a single IP injection (300 μg)): decrease in overall CD45+ peripheral lymphocytes
- CD8+ dendritic cells in peripheral blood ([5]; mice): significant increase in CD8+ dendritic cells
- CD40+ B cells in peripheral blood ([5]; mice): peripheral decrease in CD40+ B cells
- phagocytic activity [6]: induced strong phagocytic activity
- phagocytosis index compared with CD47 blocking antibody [6]: higher phagocytosis index than the CD47 blocking antibody
- phagocytic activity [7]: induced strong phagocytic activity
- phagocytosis index compared with CD47 blocking antibody [7]: higher phagocytosis index than the CD47 blocking antibody
